Measured values taken from the DeepSol protein solubility set.

assay: soluble on expression in E. coli; label from the status in PepcDB or PDB records

Sequence | soluble on expression in E. coli
MSLGDSNSSTPLPDTSYACQANVMTQSNQLRTYQIMVESFVDGDTSIGHGTGYGTSHHNGDLQGVIDSLDYIQDLGMNAIWLTPVFESEAIAGQDHWADRLDATGYFATDYFKIDPKFGDLATAKTLVEEAHKRGLYVFFDGVFGHHKNGLIKPSPSGLLPSGSSNPVDYPASLDFYKEVATYWIKELKIDGWRLDQAYQVPTDAWTQLRKAVDEASQSVTYTNSKGDQVNPLGYMVAEIWKGESEIANEAYGSNSDPALCSAFDFPMRYRIVETLAVNESGVGGRGVDWLDNGYSTHNQYPTHAQPNLMIGNHDLVRFGDLLQRGNLADVNDAEYWLRHKAAFAFQAAYTGPITLYYGDEIGDQVDGFAAKEDNNTCAIQGLCDDHVARSSAKIEGVTATLDANQADLKAYVTSLMTMRDTHPALYQGSRTNLVASNGSYVDLKQSGSDKVLFALNTLESARTVILAQESVGTGELVDLLTNEKIAPSNGQYQLPMSPLQGRFFAVTEGHHHHHH | soluble
MSLGEKRVELHLHTPMSQMDAVTPVSKLVAQAGKWGHEAIAVTDHAVAQSFPEAYSAGKKAGVKVIYGVEANLVNDGVPIAYNEEHRLLADETYVVFDVETTGLSAVYDTVIELAAVKVKGGEIIDRFESFANPHQPLSATIIELTGITDDMLTDAPEVDEVFKKFEEWMGDHTLVAHNASFDMGFINVGFKKAGLEKTKNPVIDTLELARFLFPEMKNHRLNTLCKKMDIELTQHHRAIYDTEATGYLLVKMLKDVIEKGFEYHDQLNDSMGQGDAYKRGRPSHMTLLATSDVGLKNLYKLVSYSHLNYFYRVPRVPRSLLKKYREGILVGTACDKGEVFEAMMQKAPEEVEEIAQFYDYIEVMPPEVLRHLVERELVRDEGQLKTIISNLVKLGETLDKPVVATGNVHYLDPEDAMYRKILVSSQGGANPLNRHSEGHHHHHH | soluble
MSLGEPEELVIGGVFSLSSGTSVEACRQALAGAMAAVEWVNSNGGVNIGGSKVPVRLLQEDDKGDPANAVRLIEYMARQRGVGVMLAPCDPGVLVDAVEAARGYGVVSIVYGDAPASVADPGGKTLLVGAPAEEYFTPVLEMVSILDIQSRNLAIVYQDTGFAAAVAEATRNRAVEQGFVVVLYSAYPPQAGEEELGTLALRLQASNPDVIIAIGGFRDGVELVRAMSSYGVEAKFIAMAVAPSVPEFYSELGALSQAILYPTLWELASKPYTTAEGYEWFGPSREEFYSLFREAIESLGHPVSEPGYHAAMAALAVLAVAKAAEEAGSLDPDAIYESLKNIKIMTFAGPFDLNPETGLQNEREVLVGQWINGRRFTVWPVGQAYATPVYPHEGHHHHHH | soluble
MSLGFVPVRGLHHFAYRCRDAEETRQFYEGILGLPLVHVVRAEEVPSTGEYCPYMHLFFEMKDGSCVAFFDLDDDTVPLPSSNTPVWAQHLALRVDSVAAVEEAKRKLEQAGVKVLGPVDHDGFVCSIYFFDPNGVRLELTTDTAEGHHHHHH | soluble
MSLGGSIKSPQSLTIDIIKRDYLNFKNKKILSFKDIKPKYDSQSDYHGNAIYYFMFYNKLKEFENIQNEKFKIKKEILKSYIIIIDEINRGNVSKIFGELITLIEPSKRIGEKEELKVTLPYSGEKFGVPKNVYIIGTMNTADRSITSLDTALRRRFEFVEMMPDVSKLSMDCEGINLQELLKAINTRIEYLLDREKTIGHAFFVSVENLEDLKKVFQNKIIPLLQEYFYNDYALINAVLNDNDMIFEDKKDDKYLQKIKNLDSVNSERSIYNIASFDDKIWDKIEIYQAIYNDEIANKLKNEGHHHHHH | not soluble
MSLGKEAEMNYPTDEKNFFQILEEQLSYFKINKKIKEICIFIINNLDKKGYLELSKIEIKDILEVSNKELEEAFDIIHNLEPYGIGAYSLEECLKIQLKAKKIIEEKLSLFIDNYLYLLADKKYDLIKEKLNINDNILFSYIDIIKSLNPIPSRGYSVGKVRKIIPDVLVEIKKNEIFYEINRASIPQINVKDKIEDKYYKKINEIISCIEKRFETIDKIMKIIIREQKIFFTSQGKKINTLKISDIADKLNLSPSTVSRAVKEKYIKTNFGIISLRKLFNLDSAVFLYQQKILEYIENENKENPISDQDIVNLLEKDGIKIARRTVTKYREKLGYKSSHKRKKYEGHHHHHH | not soluble
MSLGLVVLKFGGTSVSTVDKIGKTADQAIYEKKQGNKVIVVVSAMGKSTDKLVAMAEEISEAPDKREMDMLLSTGEQITIALLAMTLKEKGHDAISYTGWQAGIETEAVHSNARIADIDSARIESALDAGQIVVVAGFQGFTTDGEITTLGRGGSDTTAVAIASALNAEKCAICTDVVGVFTTDPRYVKKAQKLEQITYDEMLELANLGAGVLHPRSVEYAKNFRIPLEVRASHEQVPGTMIEEDLTMENTKVVRGIAFEDQITRVTIHWKQKEAMRVSKVFTKLAENNIDVDIIIQGITGLGHGNLSFTIKTSALLATLAVLEESKELLQIEKLESEQELAKVSIVGSGMVSNPGVAAQMFEALTENNIPIKMISTSEIKVSTVVPARKMVEAAQVLHDQFELDKEGHHHHHH | not soluble
MSLGRIYRGVEVGDVALGGKTPEEAREIVLRRAEGALERVELRGGPEGEISFDARRMGIDYKVRETVQAAYAVGREGNLLERLGERLRAAYGTVQIEPRVDYRPSVARQRIEEVASRLDRPPRQAEVNVYGSEVDVVGSREGYRVDVEATMRSVGEAVEDMSGEARLVGRVLEPEYTTAEAERAAERARRALDGELVLTYEGRRWTVSPAAIGDSLDITARDGEFRVGVDRDRLRENLSGVYAAINQEPVEAGYEISGEQITVTPSRTGRAIQDEKLLGAIEEGIFEGRREYRIPVAVDRPELTTAEAERLKPTDLLATYQTNYLTYDDSPGRVENLEIASEAVDGTLLAPGEVFSFNELAAPLDYHDTKVIINGRVDTAEGGGLCQVSSTLYMAANLAGLDVIERHPHYAELPYIRPGFDATVWFGALDMKFKNTSPGYILIREWVDRSTGTVNAAIYGRPSGIEVDMRSEKVSETVDEEGNPVTTWITYQTVRKNGEVVFDGVLHKDVYKYLKPAAPDAEGHHHHHH | soluble
MSLGRLVLNTKEELANERLMTLKIAEMKEAMRTLIFPPSMHFFQAKHLIERSQVFNILRMMPKGAALHLHDIGIVTMDWLVRNVTYRPHCHICFTPRGIMQFRFAHPTPRPSEKCSKWILLEDYRKRVQNVTEFDDSLLRNFTLVTQHPEVIYTNQNVVWSKFETIFFTISGLIHYAPVFRDYVFRSMQEFYEDNVLYMEIRARLLPVYELSGEHHDEEWSVKTYQEVAQKFVETHPEFIGIKIIYSDHRSKDVAVIAESIRMAMGLRIKFPTVVAGFDLVGHEDTGHSLHDYKEALMIPAKDGVKLPYFFHAGETDWQGTSIDRNILDALMLNTTRIGHGFALSKHPAVRTYSWKKDIPIEVCPISNQVLKLVSDLRNHPVATLMATGHPMVISSDDPAMFGAKGLSYDFYEVFMGIGGMKADLRTLKQLAMNSIKYSTLLESEKNTFMEIWKKRWDKFIADVATKEGHHHHHH | not soluble
MSLGTFPAGVSADSVFVGLTIPLTGVFSGDGGDLKLGYELAIAQINAGSDIAQKWGLKGKGVLGRQIRHKVSDTEGKPNLDVQSATQFIQRDKAIMVSGSVSSSSAIALEELGSREKVLYMVGIAGSNDITGKNCQRYGFRSQQNAYMAAKGLAPVVAKALGKNIKMAFLVPDYTYGHSVYDSFSKFATEQGWKQVAKEVVPLGTTDYSSALLNIANSGADVFVNIAFGADSVASTKQAEQFGVLKRMKLVVPNLSSFQDKELGAELMQGVYGSCDFWFGLQDKFPLAKAFVDSFVAQNNYHPRWGAHIGYMQTYLWAMSVERANTFNPVDVIKVMENSKAQPYVTTIGNVYFRAEDHQMVRPIPILRGKKPSEMKHKEDFYDIIDLVDGEAVMNPPDLFGCKLGPYTEGHHHHHH | soluble
MSLGVEGEMQSFMSDMGVQANVTGPSAYQGQSAGYYSMGSVWSRFPQKNIQPFNLQLPHARAGCGGIDLFAGSFSFINTAELVAMLKATANNALGFAFKLAIDTISPEIGKVMDELAQKVQQMNQMNISSCETAQALVGGLWPKSDTASSVICEAIANSQGAVSDWARARQQCNNGGQREALKSANSDPDMKEQAGMPNNYTWAALGKKYGGFDTQFREFLMTLVGTVIYDPAGNGGKPRVQFIGPADPALISAMLDGTSSTPHKYWSCGGDSAKCMAPSEIDMVIGPNAAIKARVRTLIESMALKVRDPGASLTPAEIQLLGMASVPVYKIITVSAAAEFGISAQEINDLSEIVAVDLVTTMTMRFIDMAVNARSDFNGADADSLREWREGLYETRRNFLGIAARTSQRFDQTFALIQRTQMLEKTLRTQLSPQMSAALRFSRTLGSQVQEGHHHHHH | not soluble
